Assay [1] has as its target T1, human Leptin receptor (human, UniProt P48357 22-1165).
T1 sequence (looked up): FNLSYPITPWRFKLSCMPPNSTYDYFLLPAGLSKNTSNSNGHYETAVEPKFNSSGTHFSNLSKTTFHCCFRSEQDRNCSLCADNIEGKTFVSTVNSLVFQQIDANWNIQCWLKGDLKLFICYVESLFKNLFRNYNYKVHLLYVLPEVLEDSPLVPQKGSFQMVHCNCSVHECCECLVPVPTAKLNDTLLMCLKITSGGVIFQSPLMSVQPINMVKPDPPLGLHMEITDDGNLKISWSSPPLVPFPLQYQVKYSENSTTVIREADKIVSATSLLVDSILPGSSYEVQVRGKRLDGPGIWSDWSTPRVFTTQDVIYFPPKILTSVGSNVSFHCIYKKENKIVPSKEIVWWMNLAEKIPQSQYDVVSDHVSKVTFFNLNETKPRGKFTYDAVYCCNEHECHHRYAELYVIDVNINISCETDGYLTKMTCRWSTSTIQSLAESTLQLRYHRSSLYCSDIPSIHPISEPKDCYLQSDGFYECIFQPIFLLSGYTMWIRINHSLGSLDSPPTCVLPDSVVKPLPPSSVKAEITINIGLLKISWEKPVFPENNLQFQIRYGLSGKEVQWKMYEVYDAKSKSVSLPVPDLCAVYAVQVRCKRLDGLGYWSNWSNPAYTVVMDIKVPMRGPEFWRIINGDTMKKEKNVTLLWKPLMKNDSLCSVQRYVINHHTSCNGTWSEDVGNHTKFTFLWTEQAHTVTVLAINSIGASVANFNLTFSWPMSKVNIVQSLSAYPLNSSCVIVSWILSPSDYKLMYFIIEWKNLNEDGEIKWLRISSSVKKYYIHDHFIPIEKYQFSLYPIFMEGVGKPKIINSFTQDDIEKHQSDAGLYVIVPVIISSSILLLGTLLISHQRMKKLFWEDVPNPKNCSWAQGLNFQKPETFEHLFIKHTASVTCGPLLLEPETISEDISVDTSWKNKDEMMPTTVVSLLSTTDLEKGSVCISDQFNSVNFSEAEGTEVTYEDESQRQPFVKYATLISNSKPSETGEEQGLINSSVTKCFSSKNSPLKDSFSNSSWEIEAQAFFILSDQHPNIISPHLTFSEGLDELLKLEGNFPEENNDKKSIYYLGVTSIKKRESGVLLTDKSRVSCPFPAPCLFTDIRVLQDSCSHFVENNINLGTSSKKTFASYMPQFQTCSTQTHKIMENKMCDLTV
The assay can be described thus: cell-based or functional assay.

Assay [2] addresses T1, human Leptin receptor. Kind of assay: SPA, displacement of human [125I]-Leptin from human Leptin receptor membranes, 0% HSA added; mean, n=3. The procedure:
(§1) Human Leptin receptor SPA binding assay were performed in white 96-well plates in a total volume of 200 μl per well. Wheat germ agglutinin coated beads containing scintillation liquid were reconstituted in binding buffer (50 mM Hepes, 1 mM CaCl₂, 5 mM MgCl₂, 0.02% Tween 20, 0.25% Ovalbumin pH 7.4) and mixed with membrane preparation to give final concentration of 1 mg beads and 10 μg total protein per well. 50.000 cpm per well of radio ligand human [¹²⁵I]-Leptin was added corresponding to a concentration of approximately […]. Human serum albumin was added to a final concentration of 2% when binding in presence of albumin was investigated. Freeze dried Leptin analogues were dissolved in PBS to 100 μM and serial diluted in binding buffer to give a final assay concentration ranging from 100 nM to […]. The plate was sealed and incubated at +25° C. for 2 hours in a plate shaker set at 400 rpm and thereafter centrifuged at 1500 rpm for 10 minutes prior to reading of luminescence on a microplate scintillation and luminescence counter. Displacement of radioligand was measured as reduction in luminescence and IC₅₀ values were calculated by nonlinear regression analysis of sigmoidal dose-response curves.

The target in assay [3] is T1, human Leptin receptor. The assay can be described thus: SPA, displacement of human [125I]-Leptin from human Leptin receptor membranes, 2% HSA added; mean, n=3. The procedure: as §1
For assay [4], the target named is T1, human Leptin receptor. The assay can be described thus: whole cell binding, displacement of [125I]-hLeptin on HEK293 cells expressing human Leptin receptor; mean, n=4. The procedure:
HEK293 cells stably expressing the human Leptin receptor were seeded in poly-D-lysine coated 24 well plates at 200.000 cells per well and cultured for two days in alpha-minimum essential medium (MEM), cell culture media containing 10% heat inactivated fetal calf serum (FCS), 1% penicillin-streptomycin (P/S), 1 mg/ml Zeocin and 1 mg/ml G418 antibiotic at +37° C. in a humidified atmosphere with 5% CO₂. Prior to the experiment, cells were rinsed in pure MEM medium, followed by incubation in Leptin analogues at 10,3,1,0.3,0.1,0.03 and 0.01 nM concentrations for 45 minutes in MEM containing 0.005% polysorbate 20 and 0.1% ovalbumin and [¹²⁵I]-hLeptin 100000 cpm. The cells were washed three times in ice cold MEM and were lysed in lysis buffer containing 1.0% nonidet P-40, 0.5% triton X-100 (C₁₄H₂₂O(C₂H₄O)ₙ) and 1M sodium hydroxide. Samples are transferred to plastic

B1: Compound C (protracted rat Leptin: rat Leptin alkylated with compound 2 at the N-terminal amino group) (ligand)
chain: VPIHKVQDDTKTLIKTIVTRINDISHTQSVSARQRVTGLDFIPGLHPILSLSKMDQTLAVYQQILTSLPSQNVLQIAHDLENLRDLLHLLAFSKSCSLPQTRGLQKPESLDGVLEASLYSTEVVALSRLQGSLQDILQQLDLSPEC
modifications: N-terminal amino group alkylated with compound 2 (protractor group: C18 diacid (17-carboxyheptadecanoyl)-gamma-Glu-OEG-OEG-4-formylbenzylamide, attached by reductive alkylation)
notes: also called protracted rLeptin
Usually IC50 stands for the concentration that inhibits the measured activity by half. The low end stands for inhibition by little substance, the high end for a need for much substance. Take B1: in assay [1], the “Luciferase assay, Mean EC50 nM, 0% HSA added” value was determined as 0.24 nM. Besides, the “Luciferase assay, Mean IC50 nM, 0.7% HSA added” value in assay [1] was 0.42 nM. Moreover, the IC50 in assay [2] turned out to be 0.38 nM; in assay [3], 5.93 nM.

B2: Rat Leptin (ligand)
chain: VPIHKVQDDTKTLIKTIVTRINDISHTQSVSARQRVTGLDFIPGLHPILSLSKMDQTLAVYQQILTSLPSQNVLQIAHDLENLRDLLHLLAFSKSCSLPQTRGLQKPESLDGVLEASLYSTEVVALSRLQGSLQDILQQLDLSPEC
notes: also called rLeptin; wt rat Leptin
On to B2, for which the “Luciferase assay, Mean EC50 nM, 0% HSA added” value in assay [1] stood at 0.41 nM. For the same molecule, in assay [1], the “Luciferase assay, Mean IC50 nM, 0.7% HSA added” value was 0.52 nM. For the same molecule, the IC50 in assay [2] turned out to be 0.49 nM; in assay [3], 0.88 nM; in assay [4], 1.01 nM.

B3: Compound A (protracted rat Leptin: rat Leptin alkylated with compound 1 at the N-terminal amino group) (ligand)
chain: VPIHKVQDDTKTLIKTIVTRINDISHTQSVSARQRVTGLDFIPGLHPILSLSKMDQTLAVYQQILTSLPSQNVLQIAHDLENLRDLLHLLAFSKSCSLPQTRGLQKPESLDGVLEASLYSTEVVALSRLQGSLQDILQQLDLSPEC
modifications: N-terminal amino group alkylated with compound 1 (protractor group with 16-(tetrazol-5-yl)hexadecanoylsulfamoyl-butyryl, two Glu, OEG, Gly and an aldehyde-derived anchor)
notes: Mw 17190 g/mol
Take B3: the “Luciferase assay, Mean EC50 nM, 0% HSA added” value in assay [1] was 1.57 nM. Further, the “Luciferase assay, Mean IC50 nM, 0.7% HSA added” value in assay [1] amounted to 1.92 nM. Besides, the IC50 worked out at 1.9 nM in assay [2], 37.1 nM in assay [3] and 1.76 nM in assay [4].

The values are drawn from patent publication US20140018290A1 (Novo Nordisk, published 2014).
